Molecular target: stabilized prefusion SARS-CoV-2 S ectodomain (SARS-CoV-2) (UniProt P0DTC2)
Experiment: negative-stain electron microscopy

Substance | stoichiometry N (Fab per trimer) | stoichiometry N
COVA1-12 Fab | 1 | –
COVA2-04 Fab | 1 | –
COVA2-07 Fab | 1 | –
COVA2-15 Fab | – | 3 per trimer
COVA2-39 Fab | 1 | –
